B1: His-PspA(68–222) (HD2–HD3–HD4) (domain or fragment)
chain: not shown
B2: His-PspA(68–110) (HD2) (domain or fragment)
chain: not shown
notes: PspA, E. coli, residues 68-110 (HD2); Cloned NdeI-BamHI into pET28b+, which should give an N-terminal His tag as for the other fragments (surmised); a start codon was added by the forward primer; source: pET28b+-based plasmid pGJ52
B3: His-PspA(1–110) (HD1–HD2) (domain or fragment)
chain: not shown
B4: His-PspA(68–186) (HD2–HD3) (domain or fragment)
chain: not shown

The results in this text go back to article PMC3128695, “A Lower-Order Oligomer Form of Phage Shock Protein A (PspA) Stably Associates with the Hexameric AAA^+ Transcription Activator Protein PspF for Negative Regulation” (Journal of Molecular Biology, 2009).

This data set concerns the molecule itself. The experiment in a line: SEC; single proteins alone: 50-μl samples of 30 μM PspAFL or PspA fragments (20 μM PspF1–275), Superose 6, 4 °C, 20 mM Tris–HCl pH 8.0, 50 mM NaCl, 15 mM MgCl2; apparent oligomeric forms from calibration with globular proteins. A general note: In gel filtration, larger molecules generally elute earlier.
In general, stoichiometry N refers to a count of units in the complex or per binding partner. As to B1, the “stoichiometry N” value came to 6 subunits. Under B2 stands 2 subunits; under B3, 2 subunits; under B4, 6 subunits.
